Publication PMC4813160

Molecular target: Isocitrate dehydrogenase (IDH) from B. longum (BlIDH) (Bifidobacterium longum subsp. infantis ATCC 15697)
Test: SEC; gel filtration on a 10/300 Superdex 200 column, 50 mM NaH2PO4 and 150 mM NaCl at pH 7.2; standards ovalbumin, conalbumin, aldolase, ferritin, thyroglobulin; single symmetrical peak, native mass 83 kDa against about 45 kDa for the subunit

stoichiometry N: 2
Substance: Isocitrate dehydrogenase (IDH) from B. longum (BlIDH) (enzyme)
